Measurements taken from patent US20050107296A1 (INSTITUT DES VAISSEAUX ET DU SANG, published 2005).

Target: T1, soluble HGF-R, chimeric fusion protein (HGF-R/IgG) comprising the HGF-binding portion of the extracellular … (UniProt P08581 25-932, limits assumed)
T1 construct: also called c-Met; not shown: a portion of IgG
Experiment: SPR (BIAcore 2000), N immobilized on the sensor chip, soluble HGF-R/IgG injected at three different doses

T1 sequence (P08581 25-932 limits assumed, change not shown): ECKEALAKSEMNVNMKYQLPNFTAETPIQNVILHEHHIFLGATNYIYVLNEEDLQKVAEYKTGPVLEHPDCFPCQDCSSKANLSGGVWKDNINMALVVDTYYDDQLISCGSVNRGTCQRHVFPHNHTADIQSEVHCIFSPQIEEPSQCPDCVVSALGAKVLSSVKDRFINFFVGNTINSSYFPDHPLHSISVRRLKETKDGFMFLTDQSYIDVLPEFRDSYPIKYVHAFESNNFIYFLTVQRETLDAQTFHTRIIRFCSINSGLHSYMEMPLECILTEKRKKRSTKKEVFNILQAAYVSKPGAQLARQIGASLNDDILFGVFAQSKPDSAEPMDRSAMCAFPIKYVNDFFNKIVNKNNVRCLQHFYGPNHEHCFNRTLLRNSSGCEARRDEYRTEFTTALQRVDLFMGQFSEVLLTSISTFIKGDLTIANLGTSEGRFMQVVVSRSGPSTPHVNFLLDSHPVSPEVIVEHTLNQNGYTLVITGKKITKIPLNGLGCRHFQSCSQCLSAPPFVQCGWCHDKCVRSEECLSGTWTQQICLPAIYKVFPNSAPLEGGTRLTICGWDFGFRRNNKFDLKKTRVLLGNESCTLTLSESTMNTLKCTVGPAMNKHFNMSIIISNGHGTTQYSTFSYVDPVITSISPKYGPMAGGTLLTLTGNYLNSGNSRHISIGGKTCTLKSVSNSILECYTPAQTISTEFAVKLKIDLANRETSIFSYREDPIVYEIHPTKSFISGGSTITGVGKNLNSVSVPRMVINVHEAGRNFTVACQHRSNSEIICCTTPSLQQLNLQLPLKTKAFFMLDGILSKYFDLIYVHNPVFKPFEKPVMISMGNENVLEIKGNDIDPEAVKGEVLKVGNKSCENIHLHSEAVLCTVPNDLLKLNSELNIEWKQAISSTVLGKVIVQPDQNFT

binding result: no binding
B1: peptide N derived from the HGF α-chain (hairpin-loop domain of HGF, N-terminal Gln instead of PyrGlu) (peptide)
chain: QRKRRNTIHEFKKSAKTTLIKIDPALKIKTKKVNTADQCANRCTRNKGLPFTCKAFVFDKARKQCLWFPFNSMSSGVKKEFGHEFDLYENKDYIRN
notes: Expressed in E. coli and purified; In Assay 6 it was immobilized on the BIAcore sensor chip; also called Ex 1
